Source: PMC2953525, “Subtle Alterations in PCNA-Partner Interactions Severely Impair DNA Replication and Repair” (PLoS Biology, 2010)
Changes are numbered by the printed parent chain.

B1: pol30-Msh6E6: PCNA mutant evolved for Msh6, IDCL sequence DYDKDLLKIIEL (protein)
chain: MLEAKFEEASLFKRIIDGFKDCVQLVNFQCKEDGIIAQAVDDSRVLLVSLEIGVEAFQEYRCDHPVTLGMDLTSLSKILRCGNNTDTLTLIADNTPDSIILLFEDTKKDRIAEYSLKLMDYDKDLLKIIELQYDSTLSLPSSEFSKIVRDLSQLSDSINIMITKETIKFVADGDIGSGSVIIKPFVDMEHPETSIKLEMDQPVDLTFGAKYLLDIIKGSSLSDRVGIRLSSEAPALFQFDLKSGFLQFFLAPKFNDEE
modifications: left off: Gal4 activation domain, end not stated, kept
B2: pol30-Pol32E5: PCNA mutant evolved for Pol32, IDCL sequence DADNDFLKISEL (protein)
chain: B1 chain with Y121A, K123N, L125F, I129S
modifications: left off: Gal4 activation domain, end not stated, kept
B3: pol30-Rad30E2: PCNA mutant evolved for Rad30, IDCL sequence DDDWDFLKILEL (protein)
chain: B1 chain with Y121D, K123W, L125F, I129L
modifications: left off: Gal4 activation domain, end not stated, kept
B4: pol30-Rad27E6: PCNA mutant evolved for Rad27, IDCL sequence DGDYDILKIREL (protein)
chain: B1 chain with Y121G, K123Y, L125I, I129R
modifications: left off: Gal4 activation domain, end not stated, kept
B5: pol30-79: previously studied PCNA mutant with decreased partner binding, IDCL sequence DIDADFAKAEEL (protein)
chain: B1 chain with Y121I, K123A, L125F, L126A, I128A, I129E
modifications: left off: Gal4 activation domain, end not stated, kept
B6: pol30-Rad30E9: PCNA mutant evolved for Rad30, IDCL sequence DNDWDFLKIDEL (protein)
chain: B1 chain with Y121N, K123W, L125F, I129D
modifications: left off: Gal4 activation domain, end not stated, kept
B7: pol30-Pol32E9 (protein)
chain: B1 chain with Y121N, K123V, L125S
modifications: left off: Gal4 activation domain, end not stated, kept
B8: pol30-Msh6E2: PCNA mutant evolved for Msh6, IDCL sequence DYDRDMLKISEL (protein)
chain: B1 chain with K123R, L125M, I129S
modifications: left off: Gal4 activation domain, end not stated, kept

system: Rrm3; test: Yeast two hybrid (Y2H) analysis of PCNA-partner interaction; assay type: binding; set-up: key: ++: major increase in growth; +: moderate increase in growth; similar growth as the WT PCNA-expressing cells; -: minor decrease in growth; --: moderate decrease in growth; ---: major decrease in growth; conditions: spotting onto selective agar plates; PCNA fused to AD, partner to BD
Method: (§1) Y2H analysis was performed using the Yeast Two Hybrid Phagemid vector kit (Stratagene), following the manufacturer's instructions. The pAD-PCNA-WT/mutant plasmids were used as bait while plasmids encoding 12 different PCNA partners (Table 1 and Table S1) were used as prey. The YRG2 host strain (Stratagene) was cotransformed with pAD-PCNA WT/mutant and pBD-partner plasmids in all possible combinations using the LiAC method. Single transformants were grown in liquid SC-Leu-Trp to O.D600 10, washed twice with DDW, and diluted to an initial OD600 of 0.3. A series of 10-fold serial dilutions was then spotted onto selective SC-Leu-Trp-His plates and incubated at 30°C for 3 d. For quantitative Y2H, the generation time of the indicated mutants and their respective partners were calculated from their growth curves in liquid SC-Leu-Trp-His media. Cells were grown overnight in SC-Leu-Trp, washed twice with ddH2O, and diluted by a factor of 1∶50 into 10 ml of pre-warmed SC-Leu-Trp-His. O.D600 measurements of the cultures were taken at the indicated time; the generation time (τ) was calculated from the growth curves according to the equation ODt = OD0×2^t/τ. The generation time calculated for each culture is an average of at least 3 independent experiments.
(§2) Table S1: Yeast two hybrid analysis of binding of selected PCNA mutants with seven additional partners not described in Table 1 of the main text. […]
(§3) pol30-Rad30E2 WT WT WT WT WT WT - pol30-Rad30E9 WT WT WT WT WT WT WT pol30-Rad27E6 WT WT WT WT + WT WT pol30-Rad27E31 WT WT WT WT + WT WT pol30-Rad27L1 WT -- WT WT -- WT WT pol30-Rad27L2 WT -- WT WT -- WT WT pol30-Pol32E5 WT WT WT WT WT WT WT pol30-Pol32E9 - WT WT WT WT WT WT pol30-Msh6E2 WT WT + WT WT WT WT pol30-Msh6E6 WT WT ++ WT WT WT WT pol30-Ung1E3 WT - WT WT WT WT WT pol30-79 --- --- --- - --- --- --- a PCNA mutants with enhanced affinities for the different target partners (see Table 1, text). b PCNA mutants were fused to the activating domain (AD), while the different partners were fused to the DNA-binding domain (BD). The growth of the resulting Y2H strains was compared to the growth of the WT PCNA-expressing strain following spotting onto selective agar plates (see Material and Methods). Growth rates on the agar plates were scored and tabulated as follows: ++ major increase in growth; + moderate increase in growth; WT-similar growth as the WT PCNA-expressing cells; - minor decrease in growth; -- moderate decrease in growth; --- major decrease in growth. ND-Not determined.

Row | Molecule | Y2H growth relative to WT PCNA-expressing strain: Rrm3
1 | B1 | WT
2 | B2 | WT
3 | B3 | WT
4 | B4 | WT
5 | B5 | ---
6 | B6 | WT
7 | B7 | WT
8 | B8 | WT

system: Eco1; test: as above; assay type: binding; set-up: key: ++: major increase in growth; +: moderate increase in growth; similar growth as the WT PCNA-expressing cells; -: minor decrease in growth; --: moderate decrease in growth; ---: major decrease in growth; conditions: spotting onto selective agar plates; PCNA fused to AD, partner to BD
Method: as §1, §2, §3

Row | Molecule | Y2H growth relative to WT PCNA-expressing strain: Eco1
9 | B1 | WT
10 | B2 | WT
11 | B3 | WT
12 | B4 | WT
13 | B5 | ---
14 | B6 | WT
15 | B7 | WT
16 | B8 | WT

system: Apn2; test: as above; assay type: binding; set-up: key: ++: major increase in growth; +: moderate increase in growth; similar growth as the WT PCNA-expressing cells; -: minor decrease in growth; --: moderate decrease in growth; ---: major decrease in growth; conditions: spotting onto selective agar plates; PCNA fused to AD, partner to BD
Method: as §1, §2, §3

Row | Molecule | Y2H growth relative to WT PCNA-expressing strain: Apn2
17 | B1 | WT
18 | B2 | WT
19 | B3 | -
20 | B4 | WT
21 | B5 | ---
22 | B6 | WT
23 | B7 | WT
24 | B8 | WT

system: Rfc1; test: as above; assay type: binding; set-up: key: ++: major increase in growth; +: moderate increase in growth; similar growth as the WT PCNA-expressing cells; -: minor decrease in growth; --: moderate decrease in growth; ---: major decrease in growth; conditions: spotting onto selective agar plates; PCNA fused to AD, partner to BD
Method: as §1, §2, §3

Row | Molecule | Y2H growth relative to WT PCNA-expressing strain: Rfc1
25 | B1 | WT
26 | B2 | WT
27 | B3 | WT
28 | B4 | WT
29 | B5 | -
30 | B6 | WT
31 | B7 | WT
32 | B8 | WT

system: Msh3; test: as above; assay type: binding; set-up: key: ++: major increase in growth; +: moderate increase in growth; similar growth as the WT PCNA-expressing cells; -: minor decrease in growth; --: moderate decrease in growth; ---: major decrease in growth; conditions: spotting onto selective agar plates; PCNA fused to AD, partner to BD
Method: as §1, §2, §3

Row | Molecule | Y2H growth relative to WT PCNA-expressing strain: Msh3
33 | B1 | ++
34 | B2 | WT
35 | B3 | WT
36 | B4 | WT
37 | B5 | ---
38 | B6 | WT
39 | B7 | WT
40 | B8 | +

system: Cdc9; test: as above; assay type: binding; set-up: key: ++: major increase in growth; +: moderate increase in growth; similar growth as the WT PCNA-expressing cells; -: minor decrease in growth; --: moderate decrease in growth; ---: major decrease in growth; conditions: spotting onto selective agar plates; PCNA fused to AD, partner to BD
Method: as §1, §2, §3

Row | Molecule | Y2H growth relative to WT PCNA-expressing strain: Cdc9
41 | B1 | WT
42 | B2 | WT
43 | B3 | WT
44 | B4 | WT
45 | B5 | ---
46 | B6 | WT
47 | B7 | -
48 | B8 | WT

system: Cac1; test: as above; assay type: binding; set-up: key: ++: major increase in growth; +: moderate increase in growth; similar growth as the WT PCNA-expressing cells; -: minor decrease in growth; --: moderate decrease in growth; ---: major decrease in growth; conditions: spotting onto selective agar plates; PCNA fused to AD, partner to BD
Method: as §1, §2, §3

Row | Molecule | Y2H growth relative to WT PCNA-expressing strain: Cac1
49 | B1 | WT
50 | B2 | WT
51 | B3 | WT
52 | B4 | +
53 | B5 | ---
54 | B6 | WT
55 | B7 | WT
56 | B8 | WT
